Source: patent publication US20160074473A1, “EFFECT OF PHOSPHOLIPID COMPOSITION OF RECONSTITUTED HDL ON ITS CHOLESTEROL EFFLUX AND ANTI-INFLAMMATORY PROPERTIES” (Kinemed, Inc., priority 2014, published 2016)
“And” between values parts separate entries of the source, which are not always exact repeats. Equal entries are not always repeated. Where two headings read alike, the source gives them in different places.

Legend:
[1] = target: T1, BHK cells stably transfected with human ABCG1 (Homo sapiens, UniProt P45844); test: Cholesterol efflux assay in vitro, ABCG1; type: cell-based; settings: 18 h incubation
T1 construct: expressed in transfected cells; host or cells: BHK cells (stably transfected, mifepristone-inducible)
Experimental: (§1) Cholesterol efflux studies were performed, as described previously (25, 26). Briefly, BHK-mock and BHK stably transfected cells with human ABCA1 cDNA, ABCG1 cDNA and SR-BI cDNA were labeled for 24 h with 1 μCi/ml of ^3H-cholesterol in minimum essential medium medium plus 10% fetal calf serum. Transporters were induced with 10 nM mifepristone in Dulbecco's modified Eagle's medium (DMEM), containing 0.2 mg/ml of fatty acid-free bovine serum albumin for 18 h. Following induction of the transporters, the cells were washed and test articles were added at 0.1, 2.5, 5, 10, 20 and 40 μM in DMEM-BSA containing mifepristone. The cholesterol efflux by BSA, free 5A peptide, purified HDL, and ApoA-I were used as quality control standards. […] Radioactive counts in media and cell fractions were measured by liquid scintillation counting, and percent cholesterol effluxed was calculated by dividing media count by the sum of media and cell counts. […]
(§2) Cholesterol efflux studies were performed, as described previously (25, 26). […] Radioactive counts in media and cell fractions were measured by liquid scintillation counting, and percent cholesterol effluxed was calculated by dividing media count by the sum of media and cell counts.

[2] = target: T2, BHK cells stably transfected with human SR-BI (Homo sapiens, UniProt Q8WTV0); test: Cholesterol efflux assay in vitro, SR-BI; type: cell-based; settings: 18 h incubation
T2 construct: expressed in transfected cells; host or cells: BHK cells (stably transfected, mifepristone-inducible)
T2 sequence (Q8WTV0 1-552): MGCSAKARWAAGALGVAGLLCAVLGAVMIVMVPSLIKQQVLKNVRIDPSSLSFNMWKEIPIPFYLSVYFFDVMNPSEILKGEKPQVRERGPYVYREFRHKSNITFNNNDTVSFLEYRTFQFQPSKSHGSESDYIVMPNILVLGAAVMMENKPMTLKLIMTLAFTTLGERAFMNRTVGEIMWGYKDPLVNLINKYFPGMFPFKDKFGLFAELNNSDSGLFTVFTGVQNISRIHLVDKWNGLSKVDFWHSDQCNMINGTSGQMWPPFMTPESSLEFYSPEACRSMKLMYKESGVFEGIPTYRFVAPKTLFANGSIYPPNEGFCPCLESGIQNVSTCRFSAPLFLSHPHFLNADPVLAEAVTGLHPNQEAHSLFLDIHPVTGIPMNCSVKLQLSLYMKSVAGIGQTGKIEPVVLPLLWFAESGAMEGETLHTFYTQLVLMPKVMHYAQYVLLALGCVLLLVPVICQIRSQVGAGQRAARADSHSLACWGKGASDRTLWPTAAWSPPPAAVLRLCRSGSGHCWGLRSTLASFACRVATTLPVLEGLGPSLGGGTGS
Experimental: as §1, §2

[3] = Alpha-helical content by circular dichroism; type: physicochemical
Experimental: High-density lipoprotein-like 5A-POPC and 5A-SM complexes were prepared by a co-lyophilization procedure (25, 26). Peptide and phospholipids were dissolved in glacial acetic acid and mixed at 1:1.25 w/w ratio (approximately 1:7 molar ratio) and lyophilized. The powder was hydrated with bicarbonate buffered saline and cycled between 50° C. and room temperature to facilitate 5A-lipid binding. The resulting HDL complexes were analyzed by gel permeation chromatography, with UV detection at 220 nm, using Tosoh TSK gel G3000SWx1 column (Tosoh Bioscience, King of Prussia, Pa.). The HDL hydrodynamic diameters were determined by dynamic light scattering (DLS), using a Zetasizer Nano, Malvern Instruments (Westborough, Mass.). The number and intensity average values were reported. The alpha-helical contents of free and lipid bound 5A peptide were determined by Jasco J715 (Jasco, Easton, Md.) circular dichroism spectropolarimeter. Samples at 0.1 mg/mL concentration were loaded into a quartz cuvette (d=0.2-cm path length), and CD spectra from 185 to 240 nm were recorded at 24° C. […]
High-density lipoprotein-like 5A-POPC and 5A-SM complexes were prepared by a co-lyophilization procedure (25, 26). […] The resulting HDL complexes were analyzed by gel permeation chromatography, with UV detection at 220 nm, using Tosoh TSK gel G3000SWx1 column (Tosoh Bioscience, King of Prussia, Pa.). […]

[4] = cited from earlier work

DWLKAFYDKVAEKLKEAFPDWAKAAYDKAAEKAKEAA [5A, ApoA-I mimetic, 37-amino acid-long bi-helical peptide]
cholesterol efflux via ABCG1 [1]: relatively low cholesterol efflux
cholesterol efflux via SR-BI [2]: relatively low cholesterol efflux
Helicity (%) ([3]; Example 1, 0.1 mg/mL, 24° C.): 19% and 18.9%
alpha-helix content ([3]; Example 2, n=3, mean±SD): 18.8±0.3%

apoA-I: the main protein in High Density Lipoprotein (HDL)
helicity ([4]; associated with lipids): over 80%
helicity ([4]; lipid-free state): about 20%
